Measurements: patent US20070142277A1

Molecular target: endogenously expressed APP isoforms in SH-SY5Y cells (human) (UniProt P05067)
Assay: cell-based or functional assay

endogenously expressed APP isoforms in SH-SY5Y cells (human), sequence (P05067 18-770): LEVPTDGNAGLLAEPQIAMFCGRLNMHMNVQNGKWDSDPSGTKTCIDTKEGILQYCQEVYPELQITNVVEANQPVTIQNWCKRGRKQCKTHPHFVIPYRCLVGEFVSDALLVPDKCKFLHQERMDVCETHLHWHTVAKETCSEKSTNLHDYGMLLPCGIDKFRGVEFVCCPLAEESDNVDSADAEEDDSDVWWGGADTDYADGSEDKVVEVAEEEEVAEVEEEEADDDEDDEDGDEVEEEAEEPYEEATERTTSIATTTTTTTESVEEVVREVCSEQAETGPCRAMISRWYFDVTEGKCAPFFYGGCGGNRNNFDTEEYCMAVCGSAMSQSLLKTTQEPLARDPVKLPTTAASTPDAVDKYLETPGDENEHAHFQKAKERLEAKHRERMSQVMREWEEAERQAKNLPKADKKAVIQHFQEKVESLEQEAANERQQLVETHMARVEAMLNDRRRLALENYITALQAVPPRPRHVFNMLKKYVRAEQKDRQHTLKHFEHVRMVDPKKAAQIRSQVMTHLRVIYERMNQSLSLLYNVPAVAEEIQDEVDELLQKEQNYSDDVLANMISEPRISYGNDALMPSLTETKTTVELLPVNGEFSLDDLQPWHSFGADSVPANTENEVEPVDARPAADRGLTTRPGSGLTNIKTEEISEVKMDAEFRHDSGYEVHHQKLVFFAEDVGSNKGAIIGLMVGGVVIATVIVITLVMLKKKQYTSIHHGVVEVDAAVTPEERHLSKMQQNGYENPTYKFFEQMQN

Aβ release (% of control), Aβ1-40 ELISA of conditioned medium of transfected SH-SY5Y cells | Aβ1-40 release, expressed as the percentage of control (cells transfected with the empty vector DNA) | Substance
193 % of control | – | BACE501 (from UniProt P56817 46-501) (enzyme)
195 % of control | 200 % of control | BACE455 (from UniProt P56817 46-501) (enzyme)
